Measurements from patent publication US12655197 (dated 2026).

Biological target: ProAgio
Assay: SPR

B1: αVβ3 (receptor)
chain 1: FNLDVDSPAEYSGPEGSYFGFAVDFFVPSASSRMFLLVGAPKANTTQPGIVEGGQVLKCDWSSTRRCQPIEFDATGNRDYAKDDPLEFKSHQWFGASVRSKQDKILACAPLYHWRTEMKQEREPVGTCFLQDGTKTVEYAPCRSQDIDADGQGFCQGGFSIDFTKADRVLLGGPGSFYWQGQLISDQVAEIVSKYDPNVYSIKYNNQLATRTAQAIFDDSYLGYSVAVGDFNGDGIDDFVSGVPRAARTLGMVYIYDGKNMSSLYNFTGEQMAAYFGFSVAATDINGDDYADVFIGAPLFMDRGSDGKLQEVGQVSVSLQRASGDFQTTKLNGFEVFARFGSAIAPLGDLDQDGFNDIAIAAPYGGEDKKGIVYIFNGRSTGLNAVPSQILEGQWAARSMPPSFGYSMKGATDIDKNGYPDLIVGAFGVDRAILYRARPVITVNAGLEVYPSILNQDNKTCSLPGTALKVSCFNVRFCLKADGKGVLPRKLNFQVELLLDKLKQKGAIRRALFLYSRSPSHSKNMTISRGGLMQCEELIAYLRDESEFRDKLTPITIFMEYRLDYRTAADTTGLQPILNQFTPANISRQAHILLDCGEDNVCKPKLEVSVDSDQKKIYIGDDNPLTLIVKAQNQGEGAYEAELIVSIPLQADFIGVVRNNEALARLSCAFKTENQTRQVVCDLGNPMKAGTQLLAGLRFSVHQQSEMDTSVKFDLQIQSSNLFDKVSPVVSHKVDLAVLAAVEIRGVSSPDHVFLPIPNWEHKENPETEEDVGPVVQHIYELRNNGPSSFSKAMLHLQWPYKYNNNTLLYILHYDIDGPMNCTSDMEINPLRIKISSLQTTEKNDTVAGQGERDHLITKRDLALSEGDIHTLGCGVAQCLKIVCQVGRLDRGKSAILYVKSLLWTETFMNKENQNHSYSLKSSASFNVIEFPYKNLPIEDITNSTLVTTNVTWGIQPAPMPV
chain 2: GPNICTTRGVSSCQQCLAVSPMCAWCSDEALPLGSPRCDLKENLLKDNCAPESIEFPVSEARVLEDRPLSDKGSGDSSQVTQVSPQRIALRLRPDDSKNFSIQVRQVEDYPVDIYYLMDLSYSMKDDLWSIQNLGTKLATQMRKLTSNLRIGFGAFVDKPVSPYMYISPPEALENPCYDMKTTCLPMFGYKHVLTLTDQVTRFNEEVKKQSVSRNRDAPEGGFDAIMQATVCDEKIGWRNDASHLLVFTTDAKTHIALDGRLAGIVQPNDGQCHVGSDNHYSASTTMDYPSLGLMTEKLSQKNINLIFAVTENVVNLYQNYSELIPGTTVGVLSMDSSNVLQLIVDAYGKIRSKVELEVRDLPEELSLSFNATCLNNEVIPGLKSCMGLKIGDTVSFSIEAKVRGCPQEKEKSFTIKPVGFKDSLIVQVTFDCDCACQAQAEPNSHRCNNGNGTFECGVCRCGPGWLGSQCECSEEDYRPSQQDECSPREGQPVCSQRGECLCGQCVCHSSDFGKITGKYCECDDFSCVRYKGEMCSGHGQCSCGDCLCDSDWTGYYCNCTTRTDTCMSSNGLLCSGRGKCECGSCVCIQPGSYGDTCEKCPTCPDACTFKKECVECKKFDRGALHDENTCNRYCRDEIESVKELKDTGKDAVNCTYKNEDDCVVRFQYYEDSSGKSILYVVEEPECPKGPD
Kd: 0.12 nM
